For 3 molecules, fold increase of binding against the methionine peptide and stoichiometry N results are on record in publication PMC2807035.

Test [1] concerns the target triple-helical collagen peptide GPC-(GPP)5-GPRGQOGVNleGFO-(GPP)5-GPC-NH2. Kind of test: ELISA; solid-phase binding assay: DS2-Fc added to 96-well plates coated with triple-helical collagen peptides at 10 μg/ml. On the technique in general: An ELISA detects its analyte on a solid surface through an enzyme-linked reagent.
The target in test [2] is triple-helical collagen peptide Ac-GPOGPOGPOGPRGQOGVNleGFOGPOGPOG-NH2. Kind of test: crystal structure; complex formed at molar peptide:protein ratio ~1.5:1; hanging drop vapor diffusion at room temperature, 0.1 M PCB pH 7.0, 25% PEG1500; 1.6 Å, molecular replacement.
For test [3] the target is unchanged. Briefly: SEC; analytical size exclusion chromatography, 24 ml Superdex 75, 20 mM MES, 100 mM NaCl pH 6.5; 16 nmol DS domain in PBS alone or mixed with varying amounts of collagen peptide (two-fold molar excess for the complex), incubated 30 min in 0.5 ml. For orientation: In gel filtration, larger molecules generally elute earlier.

Turning to “DS2-Fc (Fc-tagged DS domain of DDR2) (Fc fusion)”, the fold increase of binding against the methionine peptide in test [1] came out at 10 fold.

With “triple-helical collagen peptide Ac-GPOGPOGPOGPRGQOGVNleGFOGPOGPOG-NH2”, the stoichiometry N (as a rule, the number of molecules, sites or subunits per partner or assembly) in test [2] stood at 3.

B1: DS domain of human DDR2 (His-tagged, residues 26-190) (domain or fragment)
chain: NPAICRYPLGMSGGQIPDEDITASSQWSESTAAKYGRLDSEEGDGAWCPEIPVEPDDLKEFLQIDLHTLHFITLVGTQGRHAGGHGIEFAPMYKINYSRDGTRWISWRNRHGKQVLDGNSNPYDIFLKDLEPPIVARFVRFIPVTDHSMNVCMRVELYGCVWLDG
Turning to B1, the stoichiometry N in test [3] came to 1.
